Experiment [1] concerns the target H7N9病毒的HA蛋白(购自ACROBiosystems) (H7N9 influenza virus).
Experiment [2] has the same target. The source holds these as a separate data set.
Experiment [3] deals with H7N9病毒 A/Anhui/1/2013 的血凝素HA (on live virus) (H7N9 influenza virus A/Anhui/1/2013). Description: cell-based or functional assay.

Several values for one entry are separate records, joined by “and”; a condition that tells them apart may be missing. Equal values may be shown once.

B1: 抗H7N9全人源单克隆抗体2G3 (antibody, V domains shown)
VH: QVQLVESGAEVKKPGASVKVSCKASGYIFTSYEINWVRQATGQGLEWMGWMNPESGETGFAQKFQGRVTMTRNTSITTAYMELSSLTSEDTAVYYCATGNAECSGGSCYNWFEPWGQGTLVTVSS
VL: SSELTQDPAVSVALGQTVRITCQGDKLKSYYASWYQQKPGQAPVLVIYGRNNRPSGIPDRFSGSSSGNTASLTITGAQAEDEADYYCNSKETSGYHLVFGGGTKLTVLV
What is called Kd is a measure of binding affinity in units of concentration. Higher therefore signals weaker binding. Regarding B1, the Kd in experiment [1] was 2.3 nM. Also, the 450nm (OD) in experiment [2] was 1.6 OD 450nm and 2 OD 450nm and 1.78 OD 450nm. In experiment [3], this molecule registered a 微量中和-ELISA (MDCK细胞, 100TCID50 病毒) IC50 of 0.0711 µg/mL.

For the origin of these results see patent CN111320686A.
